Measurements from US20250136709A1 (DEVELOPMENT CENTER FOR BIOTECHNOLOGY, published 2025).

Legend:
mCD73hF1 (mouse; human) [1] = target: mCD73hF1 (mouse; human) (UniProt Q61503); experiment: ELISA, antibody titrated; right panel mCD73 hF1
mCD73hF3 (mouse; human) = mCD73hF3 (mouse; human) (UniProt Q61503); experiment: ELISA, antibody titrated; panel mCD73 hF3
mCD73hF1 (mouse; human) [2] = target: mCD73hF1 (mouse; human) (UniProt Q61503); experiment: ELISA, antibody titrated; panel mCD73 hF1
mCD73hF2 (mouse; human) = mCD73hF2 (mouse; human) (UniProt Q61503); experiment: ELISA, antibody titrated; panel mCD73 hF2
mouse CD73 [3] = target: T1, mouse CD73 (mouse, UniProt Q61503 29-551, limits assumed); experiment: ELISA, antibody titrated; left panel mCD73
T1 construct: Expressed in F293 cells and used in ELISA
T1 sequence (looked up): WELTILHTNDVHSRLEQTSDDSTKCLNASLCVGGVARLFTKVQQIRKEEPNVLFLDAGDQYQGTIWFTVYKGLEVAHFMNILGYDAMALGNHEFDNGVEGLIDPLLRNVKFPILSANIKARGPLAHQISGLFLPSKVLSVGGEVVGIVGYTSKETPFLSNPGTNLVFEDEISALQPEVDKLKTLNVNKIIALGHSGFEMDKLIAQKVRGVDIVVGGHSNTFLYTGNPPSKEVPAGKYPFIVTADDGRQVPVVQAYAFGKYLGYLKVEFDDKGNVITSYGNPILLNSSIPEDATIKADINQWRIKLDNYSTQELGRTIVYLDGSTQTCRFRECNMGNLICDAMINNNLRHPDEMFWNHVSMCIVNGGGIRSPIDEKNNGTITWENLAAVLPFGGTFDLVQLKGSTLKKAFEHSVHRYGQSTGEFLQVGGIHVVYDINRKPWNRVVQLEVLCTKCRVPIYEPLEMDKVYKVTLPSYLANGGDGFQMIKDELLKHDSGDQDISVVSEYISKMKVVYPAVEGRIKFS
Excerpt: The binding affinities of the above four mutated antibodies, 10H5 antibody, Oleclumab, and IgG to mouse CD73 and mouse CD73 hF1 were respectively analyzed by using ELISA assay.

[4] = target: human CD73 on cells (MDA-MB-231, Calu-1, KLM-1, human CD4+ T-cells) (human) (UniProt P21589); experiment: cell-based or functional assay
mouse CD73 [5] = target: T1, mouse CD73; experiment: ELISA, antibody titrated; panel mCD73
mCD73hF4 = target: T2, mCD73hF4 (human; mouse, UniProt Q61503 307-551, limits assumed); experiment: ELISA, antibody titrated; panel mCD73 hF4
T2 construct: Mouse-human domain swapping protein, expressed in F293 cells
T2 sequence: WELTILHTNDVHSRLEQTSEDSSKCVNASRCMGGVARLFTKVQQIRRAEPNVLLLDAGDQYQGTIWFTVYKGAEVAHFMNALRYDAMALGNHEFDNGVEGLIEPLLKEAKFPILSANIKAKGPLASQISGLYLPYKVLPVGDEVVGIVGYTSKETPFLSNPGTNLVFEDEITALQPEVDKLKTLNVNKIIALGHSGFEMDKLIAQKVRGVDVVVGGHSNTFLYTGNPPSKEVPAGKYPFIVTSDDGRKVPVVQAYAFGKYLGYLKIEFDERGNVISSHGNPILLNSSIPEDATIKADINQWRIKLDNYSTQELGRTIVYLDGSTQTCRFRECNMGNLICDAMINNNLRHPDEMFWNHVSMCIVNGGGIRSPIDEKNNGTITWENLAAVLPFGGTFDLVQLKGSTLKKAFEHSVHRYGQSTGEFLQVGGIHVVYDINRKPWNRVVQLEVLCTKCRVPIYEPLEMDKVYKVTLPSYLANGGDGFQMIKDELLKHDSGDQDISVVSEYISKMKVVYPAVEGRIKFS

Oleclumab (antibody)
EC50 (read off the curve) (mCD73hF1 (mouse; human) [1]): 100 pM
EC50 (read off the curve) (mCD73hF3 (mouse; human)): 100 pM
EC50 (read off the curve) (mCD73hF1 (mouse; human) [2]): 100 pM
EC50 (read off the curve) (mCD73hF2 (mouse; human)): 100 pM

B1: Oleclumab (antibody, V domains shown)
VH: EVQLLESGGGLVQPGGSLRLSCAASGFTFSSYAYSWVRQAPGKGLEWVSAISGSGGRTYYADSVKGRFTISRDNSKNTLYLQMNSLRAEDTAVYYCARLGYGRVDEWGRGTLVTVSS
VL: QSVLTQPPSASGTPGQRVTISCSGSLSNIGRNPVNWYQQLPGTAPKLLIYLDNLRLSGVPDRFSGSKSGTSASLAISGLQSEDEADYYCATWDDSHPGWTFGGGTKLTVL
EC50 (read off the curve) (mouse CD73 [3]): ~100 pM
AMP concentration in supernatant by LC/MS, MDA-MB-231 cells, 400 µM AMP, 10 nM antibody, 6 hours [4]: 324 µM
AMP concentration in supernatant by LC/MS, MDA-MB-231 cells, 400 µM AMP, 10 nM antibody, 24 hours [4]: 147 µM
AMP consumption, Calu-1 cells, 10 nM antibody, 24 hrs [4]: > 90%
AMP consumption, MDA-MB-231 cells, 10 nM antibody, 6 hr [4]: < 20%
AMP consumption, MDA-MB-231 cells, 10 nM antibody, 24 h [4]: > 90%
CFSE left-shift level of CD3/CD28-activated CD4+ T-cells with 400 µM AMP, 10 nM antibody, 3 days [4]: 72.9%
EC50 (read off the curve) (mouse CD73 [5]): ~100 pM
EC50 (read off the curve) (mCD73hF4): ~100 pM

B2: 10H5-CDRH1N35A (antibody, V domains shown)
VH: QVKLQQSGAELVKPGASVKISCKASGYVFSSYWIAWVKQRPGKGLEWIGQIYPGDGNTNYNRNFKGKATLTADKSSSTAYMQLSSLTSEDSAVYFCAGFADWGQGTTVTVSS
VL: DIELTQSPSSLSASLGERVSLTCRASQDIGDSLIWLQQEPDGTIKRLIYATSSLDSGVPKRFSGSRSGTSYSLTISSVEAEDAATYYCQQYSGYPLTFGSGTKLEIK
notes: Alanine mutant of 10H5; printed '10H5-CDRHIN35A'; also called 10H5-CDRHIN35A
binding result (mouse CD73 [3]): no binding (tested: about 5e-8 M)

B3: 10H5-CDRH1W33A (antibody, V domains shown)
VH: QVKLQQSGAELVKPGASVKISCKASGYVFSSYAINWVKQRPGKGLEWIGQIYPGDGNTNYNRNFKGKATLTADKSSSTAYMQLSSLTSEDSAVYFCAGFADWGQGTTVTVSS
VL: DIELTQSPSSLSASLGERVSLTCRASQDIGDSLIWLQQEPDGTIKRLIYATSSLDSGVPKRFSGSRSGTSYSLTISSVEAEDAATYYCQQYSGYPLTFGSGTKLEIK
notes: Alanine mutant of 10H5
binding result (mouse CD73 [3]): no binding (tested: about 5e-8 M)
